T1: human CD30 (human, UniProt P28908 19-595)
T1 construct: The same molecule is used for CD30 on HL/ALCL/NHL cell lines; also called huCD30; TNFRSF8
T1 sequence: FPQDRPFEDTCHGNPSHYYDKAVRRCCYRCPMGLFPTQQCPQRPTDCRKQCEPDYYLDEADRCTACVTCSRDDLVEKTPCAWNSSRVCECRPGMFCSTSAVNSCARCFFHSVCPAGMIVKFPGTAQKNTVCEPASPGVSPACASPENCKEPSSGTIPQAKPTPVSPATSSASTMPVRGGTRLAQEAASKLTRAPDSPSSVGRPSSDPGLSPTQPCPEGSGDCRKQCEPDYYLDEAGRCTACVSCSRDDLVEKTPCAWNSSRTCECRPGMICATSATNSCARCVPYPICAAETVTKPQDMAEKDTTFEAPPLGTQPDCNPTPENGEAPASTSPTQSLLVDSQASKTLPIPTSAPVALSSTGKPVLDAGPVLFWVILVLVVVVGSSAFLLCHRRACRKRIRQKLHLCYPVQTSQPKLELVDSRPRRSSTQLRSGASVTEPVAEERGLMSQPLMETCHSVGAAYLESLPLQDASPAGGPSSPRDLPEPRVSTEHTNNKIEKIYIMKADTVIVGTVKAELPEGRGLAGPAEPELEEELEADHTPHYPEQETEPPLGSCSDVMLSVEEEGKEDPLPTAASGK

B1: bsG1-huCD3-FEALxCD30-MDX060-FEAR (bispecific antibody, human IgG1, kappa, lambda)
heavy 1: not shown
light 1: not shown
heavy 2: QVQLQQWGAGLLKPSETLSLTCAVYGGSFSAYYWSWIRQPPGKGLEWIGDINHGGGTNYNPSLKSRVTISVDTSKNQFSLKLNSVTAADTAVYYCASLTAYWGQGSLVTVSSASTKGPSVFPLAPSSKSTSGGTAALGCLVKDYFPEPVTVSWNSGALTSGVHTFPAVLQSSGLYSLSSVVTVPSSSLGTQTYICNVNHKPSNTKVDKRVEPKSCDKTHTCPPCPAPEFEGGPSVFLFPPKPKDTLMISRTPEVTCVVVAVSHEDPEVKFNWYVDGVEVHNAKTKPREEQYNSTYRVVSVLTVLHQDWLNGKEYKCKVSNKALPAPIEKTISKAKGQPREPQVYTLPPSREEMTKNQVSLTCLVKGFYPSDIAVEWESNGQPENNYKTTPPVLDSDGSFFLYSRLTVDKSRWQQGNVFSCSVMHEALHNHYTQKSLSLSPG
light 2: DIQMTQSPTSLSASVGDRVTITCRASQGISSWLTWYQQKPEKAPKSLIYAASSLQSGVPSRFSGSGSGTDFTLTISSLQPEDFATYYCQQYDSYPITFGQGTRLEIKRTVAAPSVFIFPPSDEQLKSGTASVVCLLNNFYPREAKVQWKVDNALQSGNSQESVTEQDSKDSTYSLSSTLTLSKADYEKHKVYACEVTHQGLSSPVTKSFNRGEC
notes: also called bsG1-huCD3xCD30-MDX060
B2: bsG1-huCD3-FEALxCD30-MDX060-FERR (bispecific antibody, human IgG1, kappa, lambda)
heavy 1: not shown
light 1: not shown
heavy 2: QVQLQQWGAGLLKPSETLSLTCAVYGGSFSAYYWSWIRQPPGKGLEWIGDINHGGGTNYNPSLKSRVTISVDTSKNQFSLKLNSVTAADTAVYYCASLTAYWGQGSLVTVSSASTKGPSVFPLAPSSKSTSGGTAALGCLVKDYFPEPVTVSWNSGALTSGVHTFPAVLQSSGLYSLSSVVTVPSSSLGTQTYICNVNHKPSNTKVDKRVEPKSCDKTHTCPPCPAPEFERGPSVFLFPPKPKDTLMISRTPEVTCVVVDVSHEDPEVKFNWYVDGVEVHNAKTKPREEQYNSTYRVVSVLTVLHQDWLNGKEYKCKVSNKALPAPIEKTISKAKGQPREPQVYTLPPSREEMTKNQVSLTCLVKGFYPSDIAVEWESNGQPENNYKTTPPVLDSDGSFFLYSRLTVDKSRWQQGNVFSCSVMHEALHNHYTQKSLSLSPG
light 2: DIQMTQSPTSLSASVGDRVTITCRASQGISSWLTWYQQKPEKAPKSLIYAASSLQSGVPSRFSGSGSGTDFTLTISSLQPEDFATYYCQQYDSYPITFGQGTRLEIKRTVAAPSVFIFPPSDEQLKSGTASVVCLLNNFYPREAKVQWKVDNALQSGNSQESVTEQDSKDSTYSLSSTLTLSKADYEKHKVYACEVTHQGLSSPVTKSFNRGEC
notes: Bispecific IgG1 made by controlled Fab-arm exchange; also called bsIgG1-huCD3-FEALxCD30-MDX060-FERR; bsG1-huCD3×CD30-MDX060

What was measured:
human CD30 [1] = molecular target: T1, human CD30; assay: flow cytometry, DEL cells, experiment N = 1
human CD30 [2] = molecular target: T1, human CD30; assay: flow cytometry, KI-JK cells, experiment N = 2
human CD30 [3] = molecular target: T1, human CD30; assay: flow cytometry, HDLM-2 cells, experiment N = 2
human CD30 [4] = molecular target: T1, human CD30; assay: flow cytometry, DEL cells, experiment N = 2
cynomolgus monkey CD3 = molecular target: T2, cynomolgus monkey CD3 (cynomolgus monkey, UniProt Q95LI5 22-198); assay: flow cytometry, cynomolgus monkey T cells (PBMCs)
T2 construct: CD3 endogenously expressed on T cells within cynomolgus monkey PBMCs
Experimental: Cynomolgus monkey PBMCs (Tebu-Bio, The Netherlands; cat. no. PBMCMFA-10) or purified human T cells were plated in polystyrene 96-well round-bottom plates. T cells were derived from human donor buffy coats (Sanquin, Amsterdam, The Netherlands) and isolated using the RosetteSep human T cell enrichment cocktail (Stemcell Technologies, France, cat. no. 15061) according to manufacturer's instructions. […] After washing twice in staining buffer, cells were incubated in 50 μL secondary R-PE-conjugated goat-anti-human IgG antibody at 4° C. for 30 min (1:400 dilution). After washing twice in staining buffer, T cells were stained for T-cell markers CD3 (1:100; Miltenyi biotec, clone 10D12, conjugated to APC), CD4 (1:50; eBioscience, clone OKT4, conjugated to APC-Cy7), CD8 (1:100; Biolegend, clone RPA-T8, conjugated to AF700) and T-cell activation markers CD69 (1:50; BD Biosciences, clone AB2439, conjugated to FITC), CD25 (1:50; eBioscience, clone BC96, conjugated to PE-Cy7) and CD279/PD1 (1:50; BD Biosciences, clone AEH12.2H7, conjugated to BV605). Single stained samples with Ultracomp beads (5 μL; Invitrogen, cat. no. 01-2222-42) were used for compensation adjustments of the flow cytometer. After 30 min of incubation at 4° C., cells were washed twice with staining buffer, resuspended in 100 μL staining buffer and analyzed using a FACS Fortessa (BD Biosciences). Data were processed using FlowJo (BD Biosciences).

human CD30 [5] = molecular target: T1, human CD30; assay: flow cytometry, SU-DHL-1 cells
How it was run: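 CD3×CD30 bispecific antibodies, 3-fold serial dilutions from 0.0046 to 10 μg/mL, incubated with 3×10⁴ SU-DHL-1 (ALCL) or HDLM-2 (HL) cells for 30 min at 4 °C, then secondary antibody 30 min at 4 °C. Live cells gated by FSC/SSC and TO-PRO-3 exclusion; binding curves fitted by four-parameter sigmoidal regression.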

human CD30 [6] = molecular target: T1, human CD30; assay: flow cytometry, HDLM-2 cells (HL), range of 3 tests
Experimental: (§1) Cells (3×10⁴ cells/well) were incubated in polystyrene 96-well round-bottom plates (Greiner bio-one, cat. no. 650180) with serial dilutions of antibodies (range 0.0046 to 10 μg/mL in 3-fold dilution steps) in 50 μL staining buffer at 4° C. for 30 min. After washing twice in staining buffer, cells were incubated with 50 μL secondary antibody at 4° C. for 30 min. […] Next, cells were washed twice in staining buffer, resuspended in 100 μL staining buffer supplemented with TO-PRO-3 iodide (Thermo Fisher Scientific; cat. no. T3605; 1:8000 dilution) and analyzed on a FACSCelesta flow cytometer (BD Biosciences, USA). Live cells were gated based on FSC/SSC and absence of TOPRO-3 staining. Binding curves were analyzed by non-linear regression of log-transformed data (sigmoidal dose-response with variable slope, four parameters) using GraphPad Prism V7.02 software (GraphPad Software, San Diego, CA, USA).

human CD30 [7] = molecular target: T1, human CD30; assay: flow cytometry, KM-H2 cells (HL), average of 3 tests
Experimental: as §1

human CD30 [8] = molecular target: T1, human CD30; assay: flow cytometry, L-82 cells (ALCL), average of 2 tests
Experimental: as §1

human CD30 [9] = molecular target: T1, human CD30; assay: flow cytometry, L-428 cells (HL), range of 2 tests
Experimental: as §1

human CD30 [10] = molecular target: T1, human CD30; assay: cell-based or functional assay
human CD30 [11] = molecular target: T1, human CD30; assay: flow cytometry, L-428 cells (HL), average of 2 tests
Experimental: as §1

human CD30 [12] = molecular target: T1, human CD30; assay: flow cytometry, L-1236 cells (HL), range of 3 tests
Experimental: as §1

human CD30 [13] = molecular target: T1, human CD30; assay: flow cytometry, KM-H2 cells (HL), range of 3 tests
Experimental: as §1

human CD30 [14] = molecular target: T1, human CD30; assay: flow cytometry, DL-40 cells (ALCL), range of 3 tests
Experimental: as §1

T2 sequence (Q95LI5 22-198): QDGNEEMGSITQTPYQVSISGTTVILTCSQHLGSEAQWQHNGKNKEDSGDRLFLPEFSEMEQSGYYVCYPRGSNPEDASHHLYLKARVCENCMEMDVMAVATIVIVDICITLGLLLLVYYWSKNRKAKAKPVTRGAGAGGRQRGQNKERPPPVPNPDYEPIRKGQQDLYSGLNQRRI

Binder	EC50 (human CD30 [1]) [µg/mL]	EC50 (human CD30 [2]) [µg/mL]	EC50 (human CD30 [3]) [µg/mL]	EC50 (human CD30 [4]) [µg/mL]	EC50 (read off the curve) (cynomolgus monkey CD3) [µg/mL]	EC50 (read off the curve) (human CD30 [5]) [µg/mL]	EC50 (human CD30 [6]) [µg/mL]	EC50 (human CD30 [7]) [µg/mL]	EC50 (human CD30 [8]) [µg/mL]	EC50 (human CD30 [9]) [µg/mL]	T-cell mediated cytotoxicity of KI-JK cells, average IC50 (human CD30 [10]) [ng/mL]	T-cell mediated cytotoxicity of L-428 cells, average IC50 (human CD30 [10]) [ng/mL]	EC50 (human CD30 [11]) [µg/mL]	EC50 (human CD30 [12]) [µg/mL]	EC50 (human CD30 [13]) [µg/mL]	EC50 (human CD30 [14]) [µg/mL]
B1	0.302	0.0735	0.12	0.0568	~0.4	~0.4										
B2							0.125 to 0.221	0.159	0.2	0.174	1.5	2	0.174	0.163 to 0.225	0.141 to 0.182	0.17 to 0.347
